Measured values from patent US9156883B2, “Binding molecules for human factor VIII and factor VIII-like proteins” (DYAX CORP., priority 1999, dated 2015).
No end group written: not given here.

Tests used:
[1] = biological target: T1, REFACTO® (factor VIII-like polypeptide, amino acids 1-743 and 1638 through 2332 of human factor VIII) (Homo sapiens, UniProt P00451); assay: Phage ELISA of third-round isolates for binding to the factor VIII target; conditions: HRP anti-M13, TMB, absorbance at OD630
T1 construct: amino acids 1-743 and 1638 through 2332 of human factor VIII; purchased Genetics Institute, Inc. (Cambridge, Mass.)
T1 sequence (P00451 20-762): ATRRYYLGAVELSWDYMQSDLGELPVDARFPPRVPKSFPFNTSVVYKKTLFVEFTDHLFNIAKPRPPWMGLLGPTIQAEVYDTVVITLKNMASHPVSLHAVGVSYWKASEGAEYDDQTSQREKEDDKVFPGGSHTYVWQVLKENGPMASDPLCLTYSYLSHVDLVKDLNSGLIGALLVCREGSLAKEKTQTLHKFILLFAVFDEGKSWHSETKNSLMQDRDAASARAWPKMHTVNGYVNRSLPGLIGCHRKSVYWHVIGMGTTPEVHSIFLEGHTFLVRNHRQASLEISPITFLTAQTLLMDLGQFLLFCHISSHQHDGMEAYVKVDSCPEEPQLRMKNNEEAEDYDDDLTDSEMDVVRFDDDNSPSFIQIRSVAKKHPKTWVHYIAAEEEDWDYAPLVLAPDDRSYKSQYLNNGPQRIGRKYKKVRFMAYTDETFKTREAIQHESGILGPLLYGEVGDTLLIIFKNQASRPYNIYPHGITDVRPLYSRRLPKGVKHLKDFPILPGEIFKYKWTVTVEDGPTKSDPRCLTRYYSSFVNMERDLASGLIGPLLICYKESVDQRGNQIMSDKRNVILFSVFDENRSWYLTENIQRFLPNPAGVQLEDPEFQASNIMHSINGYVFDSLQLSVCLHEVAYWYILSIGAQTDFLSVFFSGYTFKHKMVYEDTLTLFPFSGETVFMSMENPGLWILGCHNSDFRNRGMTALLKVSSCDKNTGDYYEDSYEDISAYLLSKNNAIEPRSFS
T1 sequence (P00451 1657-2351): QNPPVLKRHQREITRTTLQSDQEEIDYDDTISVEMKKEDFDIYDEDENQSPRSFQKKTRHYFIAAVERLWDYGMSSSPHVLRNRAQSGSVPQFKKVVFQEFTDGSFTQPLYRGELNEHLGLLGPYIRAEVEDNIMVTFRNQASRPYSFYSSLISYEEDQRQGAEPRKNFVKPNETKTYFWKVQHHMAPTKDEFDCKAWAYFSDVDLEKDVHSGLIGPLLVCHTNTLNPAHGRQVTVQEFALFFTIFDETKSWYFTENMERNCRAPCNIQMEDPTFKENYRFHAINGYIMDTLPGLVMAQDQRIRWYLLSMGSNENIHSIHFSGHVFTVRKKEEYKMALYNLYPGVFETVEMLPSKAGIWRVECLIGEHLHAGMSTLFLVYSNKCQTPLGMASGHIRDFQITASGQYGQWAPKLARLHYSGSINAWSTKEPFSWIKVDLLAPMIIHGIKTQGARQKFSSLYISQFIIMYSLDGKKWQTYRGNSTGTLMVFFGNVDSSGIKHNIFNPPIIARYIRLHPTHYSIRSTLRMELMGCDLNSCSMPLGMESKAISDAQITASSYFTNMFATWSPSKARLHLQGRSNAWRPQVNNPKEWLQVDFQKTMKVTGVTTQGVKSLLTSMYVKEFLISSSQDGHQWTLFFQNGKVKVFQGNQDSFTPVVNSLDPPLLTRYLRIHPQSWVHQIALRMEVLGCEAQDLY
Description: The techniques described above were employed to isolate high affinity binding molecules for ligands for recombinantly produced factor VIII-like polypeptide consisting of two segments of human factor VIII, i.e., amino acids 1-743 and 1638 through 2332 of human factor VIII, as described in U.S. Pat. No. 5,661,008 (Almstedt et al.), obtained under the commercial designation of REFACTO® from Genetics Institute, Inc. (Cambridge, Mass.). The REFACTO® target was provided at a concentration of about 530 μg/ml (7800 IU/ml) in 19.4 mM His, 300 mM NaCl, 3.4 mM CaCl2 and 0.1% Tween 80, pH 7.0.
Three libraries, designated TN7 (5×10^9 amino acid sequence diversity), TN8 (6×10^9 amino acid sequence diversity), and TN9 (5×10^9 amino acid sequence diversity), were constructed for expression of diversified polypeptides on M13 phage. Each library was screened for binders to purified REFACTO®. Each of the libraries was constructed to display a microprotein based on an 11- or 12-amino acid template. The TN7 library utilized a template sequence of Xaa-Xaa-Cys-Xaa-Xaa-Xaa-Xaa-Xaa-Cys-Xaa-Xaa; the TN8 library utilized a template sequence of Xaa-Xaa-Cys-Xaa-Xaa-Xaa-Xaa-Xaa-Xaa-Cys-Xaa-Xaa; the TN9 library utilized a template sequence of Xaa-Cys-Xaa-Xaa-Xaa-Xaa-Xaa-Xaa-Xaa-Cys-Xaa.
(§1) Three rounds of screenings were carried out for each library. At the conclusion of the third round of screening eluted phage were propagated, and individual isolates from each library (96 per elution condition) were selected randomly and tested by standard ELISA techniques for binding to the factor VIII target. Bound phage were detected with HRP conjugated anti-M13 polyclonal antibody (Pharmacia). TMB Peroxidase substrate was used for HRP in the ELISA detection mechanism. TMB substrate produces a blue color after peroxidase digestion. The color is quantitated by absorbance at OD630. Phage isolates that provided a significant signal (OD630>0.25) above background were considered positive clones.
Sequence data from the phage isolates were grouped by library and sorted according to the degree of similarity. The frequency at which any given sequence was obtained was noted since this indicates selection for a specific binder.

factor VIII target = biological target: T2, factor VIII target (Homo sapiens, UniProt P00451); assay: Phage ELISA of high scoring isolates from rounds 2 and 3, with versus without target; type: binding; conditions: phage isolates from rounds 2 and 3
T2 construct: amino acids 1-743 and 1638 through 2332 of human factor VIII; purchased Genetics Institute, Inc. (Cambridge, Mass.)
T2 sequence (P00451 20-762): T1 sequence (P00451 20-762)
T2 sequence (P00451 1657-2351): T1 sequence (P00451 1657-2351)
Description: During analysis of the specific polypeptides of the invention, three libraries were isolated and screened. […] These libraries were designated TN7/1, TN8/6 anf TN9/1. In addition, important consensus sequences were determined.
as §1, with “clones. […]” for “clones.”

Substance	R, ratio of the ELISA score with target present to the ELISA score without target (factor VIII target)	other results
03 (FCWVFNFSHCS; Selected Phage Display Sequence) [compound 03]		ELISA signal ([1]; TN9 library phage isolates): 1.1
05 (RGCGSWLRPCLD; Selected Phage Display Sequence) [compound 05]		ELISA signal ([1]; TN8 library phage isolates): 0.2
06 (FCWVFPFHHCF; Selected Phage Display Sequence) [compound 06]		ELISA signal ([1]; TN9 library phage isolates): 0.3
07 (HACGSWFRPCHA; Selected Phage Display Sequence) [compound 07]		ELISA signal ([1]; TN8 library phage isolates): 0.4
08 (HPCGAWLRPCYN; Selected Phage Display Sequence) [compound 08]		ELISA signal ([1]; TN8 library phage isolates): 1.0
09 (FCWVFPFQHCA; Selected Phage Display Sequence) [compound 09]		ELISA signal ([1]; TN9 library phage isolates): 1.1
10 (HPCGSWLRPCLH; Selected Phage Display Sequence) [compound 10]		ELISA signal ([1]; TN8 library phage isolates): 1.0
11 (FCHVFPFLHCD; Selected Phage Display Sequence) [compound 11]		ELISA signal ([1]; TN9 library phage isolates): 0.2
11/G10 (HRCGSWLHPCLA; Selected Phage Display Sequence)		ELISA signal ([1]; TN8 library phage isolates): 0.3
A06 (HSCGSWLFPCFA; Selected Phage Display Sequence)		ELISA signal ([1]; TN7 library phage isolates): 0.5
A08 (FGCSWLFPCPF; Selected Phage Display Sequence)		ELISA signal ([1]; TN7 library phage isolates): 0.4
A09 (FHCIGVWFCLH; Selected Phage Display Sequence)		ELISA signal ([1]; TN7 library phage isolates): 0.1
C5/G10 (RLCSWVSPCSA; Selected Phage Display Sequence)		ELISA signal ([1]; TN7 library phage isolates): 0.5
D03 (PHCNWLFPCSL; Selected Phage Display Sequence)		ELISA signal ([1]; TN7 library phage isolates): 0.2
D04 (RLCSWISPCSA; Selected Phage Display Sequence)		ELISA signal ([1]; TN7 library phage isolates): 0.3
FCHVFNFVHCS (cysteine pairing not given here) [TN9 isolate 01]	8	
FCWVFAFDHCH (Selected Phage Display Sequence) [Phe-Cys-Trp-Val-Phe-Ala-Phe-Asp-His-Cys-His]	24	
FCWVFNFSHCS (cysteine pairing not given here) [TN9 isolate 03]	24	
FCWVFNWVHCD (Selected Phage Display Sequence) [Phe-Cys-Trp-Val-Phe-Asn-Trp-Val-His-Cys-Asp]	14	

Substance	R, ratio of the ELISA score with target present to the ELISA score without target (factor VIII target)	other results
FCWVFPFHHCF (cysteine pairing not given here) [TN9 isolate 06]	6	
FCWVFPFNHCD (cysteine pairing not given here) [TN9 isolate 02]	8	
FCWVFPFNHCS (cysteine pairing not given here) [TN9 isolate 12]	18	
FCWVFPFQHCA (cysteine pairing not given here) [TN9 isolate 09]	24	
FCWVFQFRHCH (Selected Phage Display Sequence) [Phe-Cys-Trp-Val-Phe-Q-Phe-Arg-His-Cys-His]	8	
FGCSWLFPCPF (cysteine pairing not given here) [TN7 isolate A08]	8	
HACGSWFRPCHA (cysteine pairing not given here) [TN8 isolate 07]	6	
HLCFAWFRPCDA (cysteine pairing not given here) [TN8 isolate 12]	8	
HLCGAWFRPCDA (cysteine pairing not given here) [TN8 isolate 02]	6	
HPCGAWLRPCYN (cysteine pairing not given here) [TN8 isolate 08]	20	
HPCGSWFNPCAH (cysteine pairing not given here) [TN8 isolate 02]	8	
HPCGSWFRPCFH (cysteine pairing not given here) [TN8 isolate 02]	16	
HPCGSWLHPCAA (cysteine pairing not given here) [TN8 isolate 04]	6	
HPCGSWLRPCLH (cysteine pairing not given here) [TN8 isolate 10]	16	
HRCGSWLHPCLA (cysteine pairing not given here) [TN8 isolate 11/G10]	6	
HSCGSWLFPCFA (cysteine pairing not given here) [TN7 isolate A06]	10	
RLCSWISPCSA (cysteine pairing not given here) [TN7 isolate D04]	6	
RLCSWVSPCSA (cysteine pairing not given here) [TN7 isolate C5/G10]	10	
